Measurements from patent US20240189230A1, “PALM FOR THE TREATMENT OF CHEMOTHERAPY-INDUCED PERIPHERAL NEUROPATHY INCIDENTAL TO THE TREATMENT OF CANCER” (Peptinovo Biopharma Inc., priority 2019, published 2024).
Non-standard residues stand in square brackets, D forms with d. No end group written: not given here. Aib = CC(C)(N)C(=O)O

Key:
SR-BI = test: DiI uptake from DiI-labeled PALM or HDL by BHK(SR-BI) cells, SR-BI induced or un-induced; assay type: cell-based, human; settings: for Un-induced DiI Uptake: un-induced BHK(SR-BI) cells
Experimental: A 40 μl aliquot of 10 mM peptide was combined with 56 μl of 20 mM POPC. 24 μl 20 mM SM(egg) and 16 μl 2.5 mM DiI in a small glass vial. The peptide and lipid solutions were prepared in 80% TBA/20% water. The DiI stock was prepared in 92% TBA/8% water. The combined solution was lyophilized and the resultant cake was rehydrated by addition of 0.2 ml of Dulbecco's phosphate buffered saline. The solution was briefly swirled, water bath sonicated (for approx. 15 sec.) and placed in a 50° C. heating block for 20 minutes.
SR-BI interaction studies are done with BHK(SR-BI) cells stably transfected with an inducible human SR-BI gene by means of the GeneSwitch™ System (Invitrogen) (Vickers et al. (2011) Nat. Cell Biol. 13:423-433) . The cells were plated (96-well plate) (8000 cells/well) in growth medium (Dulbecco's modified Eagle medium containing 10% fetal bovine serum) containing 200 μg/ml each of zeocin and hygromycin. After 24 hours incubation, the growth medium was removed and replaced with 0.2% bovine serum albumin in Dulbecco's modified Eagle medium. The medium of cells to be induced for SR-BI expression also contained 10 nM mifepristone, added from a DMSO stock solution. DMSO alone was added to the medium of uninduced cells. The induction medium was removed after 24 hours and replaced with medium containing DiI-labeled PALM (32 μg peptide/ml) or DiI-labeled HDL (19 μg protein/mL) (Kalen Biomedical, Montgomery Village, MD). The test media were prepared by diluting an aliquot of DiI-labeled PALM (Example 10) or the DiI-labeled HDL in 0.2% bovine serum albumin in Dulbecco's modified Eagle medium. The solutions were passed through 0.2 μm pore size, polyethersulfone, sterilization filters before use. The cells were incubated for 4 hours. Next, the cells were washed 3 times with 0.1% albumin in Dulbecco's phosphate buffered saline (with calcium and magnesium). The last wash was replaced with 200 μl/well of t-butanol/water (95%/5%). The covered plate was left to stand at room temp (20-21° C.) for 30 min with occasional shaking. The fluorescence in each well was detected at 520 nm excitation and 580 nm emission with a 550 nm cutoff filter on a […] Gemini fluorescence plate reader (FIG. 9).

[1] = biological target: human scavenger receptor class B, type 1 (SR-BI) (human) (UniProt Q8WTV0); test: cell-based or functional assay
[2] = Stability of peptide/phospholipid complexes by visual inspection; assay type: physicochemical; settings: SM, PC/SM 70/30, SEQ ID No. 25: peptide to phospholipids 1/4
Experimental: Separate stock solutions of peptide and phospholipids were prepared in a solvent mixture composed of 80% tert-butyl alcohol (TBA) and 20% water to obtain separate solutions of 10 mM peptide, 20 mM 1,2-dioleoyl-sn-glycero-3-phosphocholine (DOPC) or 20 mM 1-palmitoyl-2-oleoyl-phosphatidylcholine (POPC) and 20 mM egg SM. […] The solutions were combined in a 1.5 ml glass vial, frozen (−70° C.), and lyophilized at −5 to −10° C. overnight. The resultant lyophilized cakes were rehydrated by addition of Dulbecco's phosphate buffered saline followed by gentle swirling of the contents. Formation of PALM was completed by incubating the PALM solution at 50° C. for 10 minutes. […] The qualities of the PALM preparations were evident in their appearance. A visually clear preparation indicated any nanoparticles that had formed were less than approximately 40 nm diameter, based on the Tyndall effect.

[3] = biological target: T1, human scavenger receptor class B, type 1 (SR-BI) (human, UniProt Q8WTV0 1-552); test: cell-based or functional assay
T1 sequence (looked up): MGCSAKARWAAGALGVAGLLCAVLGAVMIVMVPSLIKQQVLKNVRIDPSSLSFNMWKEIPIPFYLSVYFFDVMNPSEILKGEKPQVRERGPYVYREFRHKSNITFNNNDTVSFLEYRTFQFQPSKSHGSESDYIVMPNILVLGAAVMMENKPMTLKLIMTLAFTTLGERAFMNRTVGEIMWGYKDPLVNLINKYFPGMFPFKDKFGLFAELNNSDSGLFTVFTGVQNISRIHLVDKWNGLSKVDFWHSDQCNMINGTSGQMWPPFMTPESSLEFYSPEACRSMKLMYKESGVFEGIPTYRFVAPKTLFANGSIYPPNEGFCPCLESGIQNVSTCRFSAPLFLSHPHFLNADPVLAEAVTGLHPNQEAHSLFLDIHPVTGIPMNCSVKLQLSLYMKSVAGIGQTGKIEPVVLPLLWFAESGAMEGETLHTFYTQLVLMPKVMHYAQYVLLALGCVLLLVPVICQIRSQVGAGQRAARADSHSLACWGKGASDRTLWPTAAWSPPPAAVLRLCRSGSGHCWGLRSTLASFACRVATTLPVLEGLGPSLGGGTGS

[4] = 4 hours, PALM prepared with the peptide 32 μg/ml, HDL 19 μg/ml, average (n = 4) ± SEM
[5] = complex of the peptide with DOPC, C16PTX/PL 0
[6] = complex of the peptide with POPC, C16PTX/PL 0
[7] = complex of the peptide with POPC, C16PTX/PL 0.1
[8] = complex of the peptide with DOPC, C16PTX/PL 0.1

Which “Un-induced DiI Uptake” value (SR-BI; [4]) does the source give for “DVFQ{AIB}LKELFNQLLEKWKQV (DVFQ[Aib]LKELFNQLLEKWKQV) [SEQ ID NO: 3]” here?
The value was 0.16 ± 0.01 pmol/µg/mL.

Which Increase Over Un-induced (DiI uptake, BHK(SR-BI) cells) [1] does the source give for “DiI-labeled human HDL (Kalen Biomedical) (from UniProt P02647 25-267)” here?
Its Increase Over Un-induced (DiI uptake, BHK(SR-BI) cells) is 561%.

And the Induced DiI Uptake (pmol/ug/ml), BHK(SR-BI) cells induced for human SR-BI, 4 h [1]?
Its Induced DiI Uptake (pmol/ug/ml), BHK(SR-BI) cells induced for human SR-BI, 4 h is 0.86 pmol/µg/mL.

With “HDL: high density lipoprotein, human, labeled with DiI (Kalen Biomedical) [reference compound]” as the molecule, how does the “Induced DiI Uptake” value (SR-BI; SR-BI induced (10 nM mifepristone) BHK(SR-BI) cells, 4 hours, PALM prepared with the peptide 32 μg/ml, HDL 19 μg/ml, average (n = 4) ± SEM) read?
The value was 0.86 ± 0.03 pmol/µg/mL.

And the “Increase Over Un-induced” value (SR-BI; induced vs un-induced DiI uptake)?
Its value is 561%.

And the “Un-induced DiI Uptake” value (SR-BI; [4])?
Its value is 0.13 ± 0.02 pmol/µg/mL.

Which “Stability of Peptide/Phospholipid Complexes by Visual Inspection” value [2, 5] does the source give for “DV{AIB}QKLFELFNQLLEKWKQV (DV[Aib]QKLFELFNQLLEKWKQV) [SEQ ID NO: 27]” here?
The value was “Turbid”.

And the “Stability of Peptide/Phospholipid Complexes by Visual Inspection” value [2, 6]?
The value was “Clear (A visually clear preparation indicated any nanoparticles that had formed were less than approximately 40 nm diameter)”.

And the “Stability of Peptide/Phospholipid Complexes by Visual Inspection” value [2, 7]?
Its value is “Turbid”.

And the “Un-induced DiI Uptake” value (SR-BI; [4])?
Its value is 0.34 ± 0.01 pmol/µg/mL.

What does the source list for DVFQKLVELFNQLLEKWKQV [SEQ ID NO: 26]?
Stability of Peptide/Phospholipid Complexes by Visual Inspection [2, 6]: Clear (A visually clear preparation indicated any nanoparticles that had formed were less than approximately 40 nm diameter); Stability of Peptide/Phospholipid Complexes by Visual Inspection [2, 7]: Turbid; Un-induced DiI Uptake (SR-BI; [4]): 0.49 ± 0.04 pmol/µg/mL

With “DVFQKL{AIB}ELFNQL{AIB}EKWKQV (DVFQKL[Aib]ELFNQL[Aib]EKWKQV) [SEQ ID NO: 35]” as the molecule, how does the “Un-induced DiI Uptake” value (SR-BI; [4]) read?
The value was 0.35 ± 0.01 pmol/µg/mL.

With “DVFQ{AIB}LKELLNQLLEKFKQV (DVFQ[Aib]LKELLNQLLEKFKQV) [SEQ ID NO: 5]” as the molecule, how does the “Un-induced DiI Uptake” value (SR-BI; [4]) read?
The value was 0.54 ± 0.03 pmol/µg/mL.

What does the source list for “DVFQKL{AIB}ELFNQLLEKWKQV (DVFQKL[Aib]ELFNQLLEKWKQV) [SEQ ID NO: 25]”?
Stability of Peptide/Phospholipid Complexes by Visual Inspection [2, 5]: Clear (A visually clear preparation indicated any nanoparticles that had formed were less than approximately 40 nm diameter); Stability of Peptide/Phospholipid Complexes by Visual Inspection [2, 8]: Clear (A visually clear preparation indicated any nanoparticles that had formed were less than approximately 40 nm diameter); Stability of Peptide/Phospholipid Complexes by Visual Inspection [2, 6]: Clear (A visually clear preparation indicated any nanoparticles that had formed were less than approximately 40 nm diameter); Stability of Peptide/Phospholipid Complexes by Visual Inspection [2, 7]: Clear (A visually clear preparation indicated any nanoparticles that had formed were less than approximately 40 nm diameter); Un-induced DiI Uptake (SR-BI; [4]): 0.24 ± 0.01 pmol/µg/mL

Which results are given for “DV{AIB}QKFLELFNQLLEKWKQV (DV[Aib]QKFLELFNQLLEKWKQV) [SEQ ID NO: 32]”?
Stability of Peptide/Phospholipid Complexes by Visual Inspection [2, 5]: Turbid; Stability of Peptide/Phospholipid Complexes by Visual Inspection [2, 8]: Turbid; Stability of Peptide/Phospholipid Complexes by Visual Inspection [2, 6]: Clear (A visually clear preparation indicated any nanoparticles that had formed were less than approximately 40 nm diameter); Stability of Peptide/Phospholipid Complexes by Visual Inspection [2, 7]: Turbid; Un-induced DiI Uptake (SR-BI; [4]): 0.28 ± 0.02 pmol/µg/mL

B1: DiI-labeled PALM prepared with the peptide of SEQ ID NO: 26 (peptide)
peptide: DVFQKLVELFNQLLEKWKQV
modifications: also: peptide amphiphile lipid micelle with POPC, egg sphingomyelin, DiI
Which “Increase Over Un-induced (DiI uptake, BHK(SR-BI) cells)” value [3] does the source give for B1 here?
Its value is 65%.

What about the “Induced DiI Uptake (pmol/ug/ml), BHK(SR-BI) cells induced for human SR-BI, 4 h” value (from here on “Induced DiI Uptake (pmol/ug/ml)”) [3] of the same molecule?
The value was 0.81 pmol/µg/mL.

B2: DiI-labeled PALM prepared with the peptide of SEQ ID NO: 35 (peptide)
peptide: DVFQKL[Aib]ELFNQL[Aib]EKWKQV
modifications: also: formulated as DiI-labeled peptide amphiphile lipid micelle with POPC and egg sphingomyelin
With B2 as the molecule, how does the “Increase Over Un-induced (DiI uptake, BHK(SR-BI) cells)” value [3] read?
Its value is 264%.

What about the “Induced DiI Uptake (pmol/ug/ml)” value [3] of the same molecule?
Its value is 1.26 pmol/µg/mL.

B3: DiI-labeled PALM prepared with the peptide of SEQ ID NO: 3 (peptide)
peptide: DVFQ[Aib]LKELFNQLLEKWKQV
modifications: also: formulated in a micelle with POPC, egg sphingomyelin and DiI
Which results are given for B3?
Increase Over Un-induced (DiI uptake, BHK(SR-BI) cells) [3]: 88%; Induced DiI Uptake (pmol/ug/ml), BHK(SR-BI) cells induced for human SR-BI, 4 h [3]: 0.29 pmol/µg/mL

B4: DiI-labeled PALM prepared with the peptide of SEQ ID NO: 5 (peptide)
peptide: DVFQ[Aib]LKELLNQLLEKFKQV
modifications: also: formulated as DiI-labeled peptide amphiphile lipid micelle with POPC and egg sphingomyelin
For B4, which “Increase Over Un-induced (DiI uptake, BHK(SR-BI) cells)” value [3] is on record?
Its value is 73%.

What about the “Induced DiI Uptake (pmol/ug/ml)” value [3] of the same molecule?
Its value is 0.93 pmol/µg/mL.

B5: DiI-labeled PALM prepared with the peptide of SEQ ID NO: 32 (peptide)
peptide: DV[Aib]QKFLELFNQLLEKWKQV
modifications: also: formulated as DiI-labeled peptide amphiphile lipid micelle with POPC and egg sphingomyelin
For B5, which “Increase Over Un-induced (DiI uptake, BHK(SR-BI) cells)” value [3] is on record?
Its value is 221%.

What about the “Induced DiI Uptake (pmol/ug/ml)” value [3] of the same molecule?
The value was 0.9 pmol/µg/mL.

B6: DiI-labeled PALM prepared with the peptide of SEQ ID NO: 25 (peptide)
peptide: DVFQKL[Aib]ELFNQLLEKWKQV
modifications: also: formulated as DiI-labeled peptide amphiphile lipid micelle with POPC and egg sphingomyelin
Which “Increase Over Un-induced (DiI uptake, BHK(SR-BI) cells)” value [3] does the source give for B6 here?
The value was 245%.

And the “Induced DiI Uptake (pmol/ug/ml)” value [3]?
Its value is 0.83 pmol/µg/mL.

B7: DiI-labeled PALM prepared with the peptide of SEQ ID NO: 27 (peptide)
peptide: DV[Aib]QKLFELFNQLLEKWKQV
modifications: also: formulated as DiI-labeled peptide amphiphile lipid micelle with POPC and egg sphingomyelin
For B7, which “Increase Over Un-induced (DiI uptake, BHK(SR-BI) cells)” value [3] is on record?
The value was 90%.

And the “Induced DiI Uptake (pmol/ug/ml)” value [3]?
The value was 0.66 pmol/µg/mL.
